# Experimental data reported in US9938505B2, “Polypeptide composition and culture method for pluripotent stem cell using same” (FUJIFILM Corporation, priority 2013, dated 2018).
# B1: II-1: polypeptide composition containing RCP-5 after reduction treatment with Tris(2-carboxyethyl)phosphine Hydrochloride and dialysis (protein)
# chain: MDQESCKGRCTEGFNVDKKCQCDELCSYYQSCCTDYTAECKPQVTRGDVFTMPEDEFWGRTSAGTRQPQFISRDWHGVPGQVDAAMAGRIYISGMAPRPSLAKKQRFRHRNRKGYRSQRGHSRGRNQN
# B2: II-2: comparative polypeptide composition containing RCP-5, frozen at −80° C. without being treated, then dialyzed (protein)
# chain: B1 chain
# B3: RCP-13: recombinant polypeptide SEQ ID NO: 26; human vitronectin positions 1-55, 56-130 (protein)
# chain: GPLGDQESCKGRCTEGFNVDKKCQCDELCSYYQSCCTDYTAECKPQVTRGDVFTMPEDEYTVYDDGEEKNNATVHEQVGGPSLTSDLQAQSKGNPEQTPVLKPEEEAPAPEVGASKPEGIDSRPETLHPGRPQP
# modifications: Synthetic peptide RCP-13
# B4: Natural vitronectin: human vitronectin extracted from human blood plasma, BD Biosciences (protein, UniProt P04004 20-478, looked up)
# Vitronectin: DQESCKGRCTEGFNVDKKCQCDELCSYYQSCCTDYTAECKPQVTRGDVFTMPEDEYTVYDDGEEKNNATVHEQVGGPSLTSDLQAQSKGNPEQTPVLKPEEEAPAPEVGASKPEGIDSRPETLHPGRPQPPAEEELCSGKPFDAFTDLKNGSLFAFRGQYCYELDEKAVRPGYPKLIRDVWGIEGPIDAAFTRINCQGKTYLFKGSQYWRFEDGVLDPDYPRNISDGFDGIPDNVDAALALPAHSYSGRERVYFFKGKQYWEYQFQHQPSQEECEGSSLSAVFEHFAMMQRDSWEDIFELLFWGRTSAGTRQPQFISRDWHGVPGQVDAAMAGRIYISGMAPRPSLAKKQRFRHRNRKGYRSQRGHSRGRNQNSRRPSRATWLSLFSSEESNLGANNYDDYRMDWLVPATCEPIQSVFFFSGDKYYRVNLRTRRVDTVDPPYPRSIAQYWLGCPAPGHL
# Columns and labels:
# [1] = Evaluation of adsorbability with respect to culture dish (OPA/NAC fluorescence); format: physicochemical; conditions: FIG. 1
# Protocol: Each of the polypeptides obtained as above was diluted with a predetermined buffer such that they could be added to wells at a predetermined final concentration of 0 pmol/cm^2 to 200 pmol/cm^2. Thereafter, each of the polypeptides was added in an amount of 64 μL to a plasma-treated 96-well plate made of polystyrene (Tissue Culture-Treated, Falcon). Each of the polypeptides was allowed to adsorbed onto the plate by being incubated for 2 hours at 37° C., and then the wells were washed twice with PBS, thereby obtaining surfaces coated with each of the polypeptides of RCP-1 to RCP-16.
# Among the surfaces coated with each of the polypeptides obtained as above, the surfaces coated with RCP-1 and RCP-11 to RCP-16 were applied with 64 μL of a borate buffer and 64 μL of 1 N NaOH, followed by incubation for 24 hours at 80° C. and 100% humidity. […] After incubation for 30 minutes at 40° C., the fluorescence intensity thereof was measured by using an ENVISION MULTILABEL COUNTER (trade name, PerkinElmer Inc.) (excitation 355 nm/fluorescence 486 nm). […]
# iPS cells [2] = experiment: Cell growth property evaluation 2 (ALP activity, 72 hours); format: cell-based, human; conditions: for Number of cells (%/LN-511): same method as Cell growth property evaluation 2, Table 13
# Protocol: Each of the polypeptide liquids was added to the respective wells of a plasma-treated 96-well plate (BD Falcon) made of polystyrene having a plasma-treated cell culture surface, and the plate was held as it is for 2 hours at 37° C. such that the polypeptide was adsorbed thereonto, thereby obtaining a peptide-treated 96-well plate having a polypeptide-coated surface. Into the respective wells of the obtained peptide-treated 96-well plate, iPS cells suspended in a medium obtained by mixing TeSR2 (Stemcell Technologies Inc.) with NUTRISTEM (registered trademark, Bio Industries Inc.) at 1:1 (volume ratio) were seeded at a cell density of 10,000 cells/well. After 72 hours of culture, nonadhesive cells were washed off with PBS, and only adhesive cells were immobilized using 4% by mass paraformaldehyde (Wako Pure Chemical Industries, Ltd.). By using an ATTOPHOS (registered trademark) AP FLUORESCENT SUBSTRATE SYSTEM (Promega Corporation), the ALP activity was calculated, and from the calibration curve, the number of undifferentiated iPS cells having the ALP activity was calculated. In Table 11, the cell growth rate is expressed as a ratio calculated by regarding the number of cells after 72 hours of culture using recombinant laminin as being 100%. n=3.
# By the same method as described in <Cell growth property evaluation 2> of Example 3, the cell growth properties of the polypeptide compositions II-1 and II-2 was evaluated. […] That is, it was understood that the polypeptide in which Cys 25, Cys 31, and the intramolecular cross-linking structure bind with each other is excellent in the cell growth activity.
# [3] = target: T1, Plasminogen Activator Inhibitor-1 (PAI-1) (Homo sapiens, UniProt P05121); experiment: Evaluation of PAI-1 binding properties (plate assay, Scatchard plot); conditions: for Binding constant: KA from slope of Scatchard plot, PAI-1 170 nM to 2.6 nM, RCP-5 immobilized from 100 μg/ml
# T1 construct: purchased R & D Systems Inc 1786-PI
# T1 sequence (P05121 24-402): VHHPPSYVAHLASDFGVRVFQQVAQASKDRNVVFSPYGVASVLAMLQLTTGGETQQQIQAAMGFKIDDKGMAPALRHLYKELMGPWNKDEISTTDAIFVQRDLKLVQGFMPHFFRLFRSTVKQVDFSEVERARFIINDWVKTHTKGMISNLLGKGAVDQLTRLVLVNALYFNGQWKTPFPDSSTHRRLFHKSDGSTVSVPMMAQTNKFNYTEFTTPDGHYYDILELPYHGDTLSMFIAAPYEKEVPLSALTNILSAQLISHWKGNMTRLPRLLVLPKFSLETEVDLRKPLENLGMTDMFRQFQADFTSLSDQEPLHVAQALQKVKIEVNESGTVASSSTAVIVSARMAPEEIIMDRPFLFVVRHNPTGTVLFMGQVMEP
# Protocol: By using a Plasminogen Activator Inhibitor-1 (PAI-1) known to bind with a polypeptide having a structure in which Cys 25 and Cys 31 are cross-linked to each other, detection of the cross-linking structure of Cys 25 and Cys 31 was tried.
# The polypeptide compositions II-1 and II-2 (100 μg/ml) were added to a flat-bottomed black 96-well plate (half-Area) made of polystyrene at 64 μL/well. The entirety of the plate was covered with a sealing film (Funakoshi Co., Ltd.) and left to stand at 4° C. such that RCP-5 in each of the polypeptide compositions was immobilized. After 12 hours, the liquid in the wells was discarded, and TBS (NIPPON GENE CO., LTD.) containing 5% Bovine Serum Albumin (Sigma-Aldrich Co, LLC.) was added thereto at 150 μL/well. The plate was left to stand for 1 hour at 37° C., and then the liquid in the wells was discarded. Furthermore, BLOCKER CASEIN (trade name, Thermo Scientific Inc.) was added thereto at 150 μL/well, and the plate was left to stand at 37° C. as above so as to performing blocking. After 1 hour, TBS (TBST) containing 0.05% Tween 20 was added thereto at 150 μL/well, and the liquid was continuously discarded from the wells. By performing the above operation 4 times in total, the inside of the wells was washed.
# Then, a solution of recombinant PAI-1 (catalog number 1786-PI, R & D Systems Inc) serially diluted with TBS from 170 nM to 2.6 nM at the same factor was added to the respective well at 50 μL/well, and the plate was left to stand at 37° C. After 1 hour, the PAI-1 solution was discarded from the wells, and the wells were washed with TBST 4 times in total by the same method as described above, thereby removing unbound PAI-1. […]
# Furthermore, an undiluted solution of HRP-labeled anti-goat IgG antibodies (catalog number 81-1620, Life Technologies) was diluted 7,500-fold with TBS and added to the wells at 100 μL/well. […] The excitation wavelength and the fluorescence wavelength were set to be 330 nm and 410 nm respectively, and the binding of RCP-5 to PAI-1 was measured as a relative fluorescence unit by using ENVISION (trade name, PerkinElmer Inc). […]
# iPS cells [4] = experiment: Evaluation of maintenance of undifferentiated state (colony form, NANOG staining); format: cell-based, human; conditions: FIGS. 4A to 4E; after culture for 1 month
# Protocol: iPS cells collected in the same manner as in <Cell adhesiveness evaluation 1> were suspended in TeSR2. The iPS cells were seeded into 6-well plate (Tissue culture-treated, Falcon), onto which each of the samples 1, 2, 5, 6, and 7 used in <Cell adhesiveness evaluation 1> was adsorbed in the same manner as in <Cell adhesiveness evaluation 1>, and cultured in a CO2 incubator at 37° C. Except for the day after the seeding, the medium was replaced every day. In the same method as described above, the cells were subcultured every six days. FIGS. 3A to 3E show forms of the iPS cells cultured on each of the samples.
# After being cultured for 1 month under the conditions described above, the cells were immobilized using 4% paraformaldehyde and treated with 1% Triton-X/PBS so as to enhance the membrane permeability. After the cells were subjected to a blocking treatment using an IMAGE IT SIGNAL ENHANCER (trade name, Invitrogen), an anti-human NANOG antibody (AF 1997, R&D Systems, Inc.), an ALEXA FLUOR 555 binding rabbit anti-goat IgG antibody (Invitrogen), and DAPI (Dojindo Molecular Technologies, Inc.) were added thereto for labeling, and the cells were imaged using a fluorescence microscope. FIGS. 4A to 4E show the fluorescence microscopic images.
# FIGS. 3A and 4A show the iPS cells cultured on RCP-1; FIGS. 3B and 4B show the iPS cells cultured on RCP-11; FIGS. 3C and 4C show the iPS cells cultured on natural human vitronectin; FIGS. 3D and 4D show the iPS cells cultured on rLaminin-5; and FIGS. 3E and 4E show the iPS cells cultured on rLaminin-511. The scale bar in the images indicates […]. In FIGS. 3A to 3E, the images on the left side are full images of the colony, and the images on the right side are magnified images. In FIGS. 4A to 4E, the images on the left side are images of the cells stained with DAPI, and the images on the right side are images of the cells stained with an anti-NANOG antibody. The scale bar in FIGS. 3A to 4E indicates 200 μm.
Molecule,"amount adsorbed onto the plate, as fraction of the amount of the polypeptide including SEQ ID NO: 3 [1]",Number of cells (%/LN-511) (iPS cells [2]),Binding constant [3],also measured
RCP-14: recombinant polypeptide SEQ ID NO: 27; human vitronectin positions 1-55 (GPLGDQESCKGRCTEGFNVDKKCQCDELCSYYQSCCTDYTAECKPQVTRGDVFTMPEDE; Synthetic peptide RCP-14),about ¼,,,
B1,,107 ± 47,0.22,cell growth properties (in words) (iPS cells [2]; comparison of compositions): better than that of the polypeptide composition II-2; binding constant of PAI-1 (in words) ([3]; comparison of compositions): greater
B2,,79 ± 5,0.06,
B3,about ¼,,,
B4,,,,NANOG expression / maintenance of undifferentiated state (iPS cells [4]): strongly expressed NANOG in the entirety of the colony
